According to patent publication US20220363757A1 (SYMPHOGEN A S, published 2022):

T1: human LAG-3 domain 1-2 Fc fusion, point mutation #28 A81S (human, UniProt P18627 23-266)
T1 construct: not shown: human IgG1 Fc, AA P101-K330
T1 sequence: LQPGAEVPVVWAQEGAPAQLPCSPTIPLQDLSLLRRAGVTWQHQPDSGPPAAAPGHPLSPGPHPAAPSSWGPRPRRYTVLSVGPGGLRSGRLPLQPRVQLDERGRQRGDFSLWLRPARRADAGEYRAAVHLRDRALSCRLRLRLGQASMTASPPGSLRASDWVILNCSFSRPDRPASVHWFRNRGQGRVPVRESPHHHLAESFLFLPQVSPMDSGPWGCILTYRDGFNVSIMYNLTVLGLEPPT

T2: human LAG-3 domain 1-2 Fc fusion, point mutation #6 T47A (human, UniProt P18627 23-266)
T2 construct: not shown: human IgG1 Fc, AA P101-K330
T2 sequence: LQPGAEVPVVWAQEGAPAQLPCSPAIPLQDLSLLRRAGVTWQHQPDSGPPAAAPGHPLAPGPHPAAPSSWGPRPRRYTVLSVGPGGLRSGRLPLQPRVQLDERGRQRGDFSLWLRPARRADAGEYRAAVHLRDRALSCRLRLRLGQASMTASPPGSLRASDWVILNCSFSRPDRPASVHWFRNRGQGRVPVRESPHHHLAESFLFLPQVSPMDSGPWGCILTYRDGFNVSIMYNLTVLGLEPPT

T3: human LAG-3 domain 1-2 Fc fusion, point mutation #47 T100A (human, UniProt P18627 23-266)
T3 construct: not shown: human IgG1 Fc, AA P101-K330
T3 sequence: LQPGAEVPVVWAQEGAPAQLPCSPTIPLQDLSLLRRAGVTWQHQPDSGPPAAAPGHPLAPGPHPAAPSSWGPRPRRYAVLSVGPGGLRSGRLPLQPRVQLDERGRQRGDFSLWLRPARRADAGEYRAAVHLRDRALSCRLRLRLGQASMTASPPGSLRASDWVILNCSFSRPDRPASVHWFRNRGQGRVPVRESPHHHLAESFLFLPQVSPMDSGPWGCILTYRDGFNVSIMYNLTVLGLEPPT

T4: human LAG-3 domain 1-2 Fc fusion, point mutation #50 P106A (human, UniProt P18627 23-266)
T4 construct: not shown: human IgG1 Fc, AA P101-K330
T4 sequence: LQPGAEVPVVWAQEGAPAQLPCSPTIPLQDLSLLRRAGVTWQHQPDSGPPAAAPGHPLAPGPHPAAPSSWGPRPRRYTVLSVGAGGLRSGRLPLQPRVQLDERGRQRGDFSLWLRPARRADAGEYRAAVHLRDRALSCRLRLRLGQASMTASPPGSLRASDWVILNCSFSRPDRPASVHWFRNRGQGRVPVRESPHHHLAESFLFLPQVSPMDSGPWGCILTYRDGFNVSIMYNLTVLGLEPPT

T5: human LAG-3 domain 1-2 Fc fusion, point mutation #34 A87S (human, UniProt P18627 23-266)
T5 construct: not shown: human IgG1 Fc, AA P101-K330
T5 sequence: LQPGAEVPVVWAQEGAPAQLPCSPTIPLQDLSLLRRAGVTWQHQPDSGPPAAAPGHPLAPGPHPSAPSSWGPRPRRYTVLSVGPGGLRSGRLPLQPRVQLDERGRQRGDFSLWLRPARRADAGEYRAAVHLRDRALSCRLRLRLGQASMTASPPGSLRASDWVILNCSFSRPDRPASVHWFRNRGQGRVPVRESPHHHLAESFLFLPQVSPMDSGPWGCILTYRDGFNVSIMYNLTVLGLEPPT

T6: human LAG-3 domain 1-2 Fc fusion, point mutation #64 E124A (human, UniProt P18627 23-266)
T6 construct: not shown: human IgG1 Fc, AA P101-K330
T6 sequence: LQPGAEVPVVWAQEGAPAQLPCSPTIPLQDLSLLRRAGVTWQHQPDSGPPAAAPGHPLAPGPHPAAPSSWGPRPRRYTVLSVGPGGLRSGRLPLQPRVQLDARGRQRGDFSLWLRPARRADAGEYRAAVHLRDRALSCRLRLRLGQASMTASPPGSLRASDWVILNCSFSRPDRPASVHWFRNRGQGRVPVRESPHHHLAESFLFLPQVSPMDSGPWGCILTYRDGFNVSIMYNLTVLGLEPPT

T7: human LAG-3 domain 1-2 Fc fusion, point mutation #57 R113A (human, UniProt P18627 23-266)
T7 construct: not shown: human IgG1 Fc, AA P101-K330
T7 sequence: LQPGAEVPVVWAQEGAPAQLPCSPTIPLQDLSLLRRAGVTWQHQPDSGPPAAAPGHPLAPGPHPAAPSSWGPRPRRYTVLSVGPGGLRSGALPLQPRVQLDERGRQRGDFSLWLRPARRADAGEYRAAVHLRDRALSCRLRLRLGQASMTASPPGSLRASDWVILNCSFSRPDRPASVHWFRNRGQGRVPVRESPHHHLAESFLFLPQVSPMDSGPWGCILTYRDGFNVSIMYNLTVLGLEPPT

T8: human LAG-3 domain 1-2 Fc fusion, point mutation #75 R141A (human, UniProt P18627 23-266)
T8 construct: not shown: human IgG1 Fc, AA P101-K330
T8 sequence: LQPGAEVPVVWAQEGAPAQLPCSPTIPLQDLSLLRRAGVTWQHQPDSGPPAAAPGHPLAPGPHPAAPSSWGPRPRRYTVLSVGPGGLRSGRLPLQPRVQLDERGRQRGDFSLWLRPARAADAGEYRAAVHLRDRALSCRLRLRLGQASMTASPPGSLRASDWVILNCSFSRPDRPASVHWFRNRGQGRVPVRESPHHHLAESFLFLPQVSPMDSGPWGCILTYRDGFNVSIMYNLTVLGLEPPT

T9: human LAG-3 domain 1-2 Fc fusion, point mutation #76 D143A (human, UniProt P18627 23-266)
T9 construct: not shown: human IgG1 Fc, AA P101-K330
T9 sequence: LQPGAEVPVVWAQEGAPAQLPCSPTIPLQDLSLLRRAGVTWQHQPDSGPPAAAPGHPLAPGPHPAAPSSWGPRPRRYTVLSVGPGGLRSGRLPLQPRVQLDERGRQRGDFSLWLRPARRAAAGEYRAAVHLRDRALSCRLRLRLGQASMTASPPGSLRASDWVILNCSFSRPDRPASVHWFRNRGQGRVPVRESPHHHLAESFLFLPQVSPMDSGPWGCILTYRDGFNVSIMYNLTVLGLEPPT


Legend:
Test in all cases: SPR, Fab over captured mutant LAG-3-Fc;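 further: fc fusion variants captured on anti-human IgG Fc sensor, Fab injected with association then dissociation phases, KD obtained from Langmuir one-to-one fit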
[1] = target: T1, human LAG-3 domain 1-2 Fc fusion, point …
[2] = target: T2, human LAG-3 domain 1-2 Fc fusion, point …
[3] = target: T3, human LAG-3 domain 1-2 Fc fusion, point …
[4] = target: T4, human LAG-3 domain 1-2 Fc fusion, point …
[5] = target: T5, human LAG-3 domain 1-2 Fc fusion, point …
[6] = target: T6, human LAG-3 domain 1-2 Fc fusion, point …
[7] = target: T7, human LAG-3 domain 1-2 Fc fusion, point …
[8] = target: T8, human LAG-3 domain 1-2 Fc fusion, point …
[9] = target: T9, human LAG-3 domain 1-2 Fc fusion, point …

Row | Binder | KD mutant/KD wild type [1] [fold] | KD mutant/KD wild type [2] [fold] | KD mutant/KD wild type [3] [fold] | KD mutant/KD wild type [4] [fold] | KD mutant/KD wild type [5] [fold] | KD mutant/KD wild type [6] [fold] | KD mutant/KD wild type [7] [fold] | KD mutant/KD wild type [8] [fold] | KD mutant/KD wild type [9] [fold] | binding result [5] | binding result [3] | binding result [4] | binding result [6] | binding result [9]
1 | Fab fragment of antibody 15011 (Fab, V domains shown, not shown: a dimerising Fc or GST, monomeric Fab made by GingisKHAN digestion of the IgG1) VH: EVQLLESGGGLVQPGGSLRLSCAASGFDFRSYAMMWVRQAPGKGLEWVGGINGEVGGSNTYYAPAVKGRATISRDNSKNTLYLQMNSLRAEDTAVYYCVKGAGACGICNDDIDAWGQGTLVTVSS VL: SYELTQDPAVSVALGQTVRITCSGAGSYAGSYYYGWHQQKPGQAPVTVIYDNDKRPSNIPDRFSGSSSGNTASLTITGAQAEDEADYYCGSTNDNDDGGLFGSGTKVTVLG | 0.8 | 0.9 | 0.6 | 4.6 | 1 | 0.8 | 3.3 | 1.1 | 0.5 |  |  |  |  | 
2 | Fab fragment of antibody 15431 (Fab, V domains shown, not shown: a dimerising Fc or GST, monomeric Fab made by GingisKHAN digestion of the IgG1) VH: QVQLQQSGPGLVKPSQTLSLTCAISGDSVSSNSAAWNWIRQSPSRGLEWLGRTYYRSKWYNDYAVSVKSRITINPDTSKNQFSLQLNSVTPEDTAVYYCARDDDWNDFDYWGQGTLVTVSS VL: EIVLTQSPATLSLSPGERATLSCRASQSVSSYLAWYQQKPGQAPRLLIYDASNRATGIPARFSGSGSGTDFTLTISSLEPEDFAVYYCQQRSNWPLTFGGGTKVEIKR | 0.6 | 0.9 |  |  | 1 |  | 0.9 | 1 |  |  | no binding (tested: 300 nM) | no binding (tested: 300 nM) | no binding (tested: 300 nM) | no binding (tested: 300 nM)

More lines, now with the values ahead:

Row | KD mutant/KD wild type [1] [fold] | KD mutant/KD wild type [2] [fold] | KD mutant/KD wild type [3] [fold] | KD mutant/KD wild type [4] [fold] | KD mutant/KD wild type [5] [fold] | KD mutant/KD wild type [6] [fold] | KD mutant/KD wild type [7] [fold] | KD mutant/KD wild type [8] [fold] | KD mutant/KD wild type [9] [fold] | binding result [5] | binding result [3] | binding result [4] | binding result [6] | binding result [9] | Binder
3 | 0.6 | 1.5 | 3.9 | 2.7 |  | 1.8 | 0.6 | 0.7 | 3.8 | no binding (tested: 300 nM) |  |  |  |  | Fab fragment of antibody 15532 (Fab, V domains shown, not shown: a dimerising Fc or GST, monomeric Fab made by GingisKHAN digestion of the IgG1) VH: QVQLQQWGAGLLRPSETLSLTCAVYGESFSGYYWNWIRQPPGKGLEWIGEINHSGSTNYNPSLKSRVTISVDTSKTQFSLKLSSVTAADTAVYYCARGWDLLDWNDYWNEYWGQGTLVTVSS VL: EIVLTQSPATLSLSPGERATLSCRASQSVSSYLAWYQQKPGQAPRLLIYDASNRATGIPARFSGSGSGTDFTLTISSLEPEDFAVYYCQQRSNWPLTFGGGTKVEIKR
4 | 0.6 | 0.6 |  |  | 0.9 |  | 0.7 | 0.9 |  |  | no binding (tested: 300 nM) | no binding (tested: 300 nM) | no binding (tested: 300 nM) | no binding (tested: 300 nM) | Fab fragment of antibody 15572 (Fab, V domains shown, not shown: a dimerising Fc or GST, monomeric Fab made by GingisKHAN digestion of the IgG1) VH: QLQLQESGPGLVKPSETLSLTCTVSGDSISSSSYYWGWIRQPPGKGLEWIGSIFYSGNTYYNPSLKSRVTISVDTSKNQFSLKLSSVTAADTAVYYCAREDDFLTDYYGAFDIWGQGTMVTVSS VL: not shown
